Data reported in PMC8865373 (Biochemistry, 2021).
Where no end group is shown, it is not given here. [ ]: non-standard residue; d: D form. pS = N[C@@H](COP(=O)(O)O)C(=O)O

T1: TAZ2 domain (residues 1764–1855) of wild-type mouse CBP (mouse, UniProt P45481 1764-1855)
T1 sequence (looked up): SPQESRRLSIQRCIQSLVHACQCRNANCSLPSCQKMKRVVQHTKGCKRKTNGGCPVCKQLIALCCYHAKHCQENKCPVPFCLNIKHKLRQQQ


Legend:
[1] = molecular target: T1, TAZ2 domain (residues 1764–1855) of …; experiment: fluorescence polarisation
[2] = molecular target: T1, TAZ2 domain (residues 1764–1855) of …; experiment: NMR titration
[3] = molecular target: T1, TAZ2 domain (residues 1764–1855) of …; experiment: fluorescence polarisation; remark: listed apart in the source
[4] = molecular target: T1, TAZ2 domain (residues 1764–1855) of …; experiment: NMR titration; remark: listed apart in the source

Row | Binder | Kd [3] [µM] | binding result [4] | other results
1 | E7(1–51) C24A/A50C labeled with Alexa fluor 594, unphosphorylated (domain or fragment) MHGDTPTLHEYMLDLQPETTDLYAYEQLNDSSEEEDEIDGPAGQAEPDRC(Alexa Fluor 594)H |  |  | Kd [1]: 0.079 µM
2 | MHGDTPTLHEYMLDLQPE-NH2 [E7 CR1 peptide (residues 1–18)] | 31 ± 2 |  | Kd [2]: 69 µM
3 | PETTDLYCYEQLND[pS][pS]EEEDEIDGPAGQAEPDRAH (domain or fragment) [doubly-phosphorylated HPV16 ppE7(17–51)] |  | binds | 
4 | ppE7(1–51)(L15V) (domain or fragment) MHGDTPTLHEYMLDVQPETTDLYCYEQLND[pS][pS]EEEDEIDGPAGQAEPDRAH |  | binds | 
5 | PETTDLYCYEQLNDSSEEEDEIDGPAGQAEPDRAH (domain or fragment) [HPV16 E7(17–51), unphosphorylated] | 1.8 ± 0.1 |  | 
6 | doubly-phosphorylated HPV16 ppE7(1–51) (domain or fragment) MHGDTPTLHEYMLDLQPETTDLYCYEQLND[pS][pS]EEEDEIDGPAGQAEPDRAH |  | binds | 
7 | ETTDLYCYEQLNDSSEEEDE [E7 CR2 peptide (residues 18–37)] | 4.6 ± 0.2 |  | Kd [2]: 3.4 µM
8 | HPV16 E7(1–51), unphosphorylated (domain or fragment) MHGDTPTLHEYMLDLQPETTDLYCYEQLNDSSEEEDEIDGPAGQAEPDRAH | 0.1 ± 0.01 |  | 
